These results are taken from patent publication US20230104769A1 (MABWELL SHANGHAI BIOSCIENCE, published 2023).

For assay [1], the target named is T1, mouse PD-1 (Cat: 50124-M08H, Sino Biological Inc.) (mouse, UniProt Q02242 25-167).
T1 construct: Bought recombinant protein; also called recombinant mouse PD-1
T1 sequence (looked up): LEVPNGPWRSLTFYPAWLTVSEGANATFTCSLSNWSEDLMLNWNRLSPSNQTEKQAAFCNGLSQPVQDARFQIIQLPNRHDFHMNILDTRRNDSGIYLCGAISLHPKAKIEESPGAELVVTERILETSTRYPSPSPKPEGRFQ
Nature of the assay: ELISA, plate coated with the PD-1 protein at 1 µg/mL, hybridoma supernatant diluted 100 times. As for the experimental part: (§1) A plate was coated with recombinant human PD-1/His protein (NCBI accession No.: NP_005009.2, 21aa-167aa, Lot: 2016.2.22), cynomolgus monkey PD-1 (Cat: 90311-C08H, Sino Biological Inc.), rat PD-1 (Cat: 80448-R08H, Sino Biological Inc.) and mouse PD-1 (Cat: 50124-M08H, Sino Biological Inc.) in a concentration of 1 μg/mL overnight at 4° C., washed three times with PBS subsequently, and 5% BSA-PBS was added for blocking for 60 min at 37° C. The plate was washed three times with PBST afterwards, and supernatants of the hybridiomas diluted 100 times were added and incubated for 60 min at 37° C. Again, the plate was washed four times with PBST, HRP-Goat anti-mouse IgG (Fcγ) (Cat: 115-035-071, Jackson Immuno Research) with a dilution of 1:5000 was added for a 30 min incubation at 37° C. Once again, the plate was washed four times with PBST, and TMB substrate was added for developing color through incubating for 10 min at 37° C., then the reaction was terminated by adding 2 M HCl. With 630 nm as reference wavelength, the absorbance at 450 nm (A450 nm-630 nm) of each well in the plate was read and recorded.

For assay [2], the target named is T2, cynomolgus monkey PD-1 (Cat: 90311-C08H, Sino Biological Inc.) (cynomolgus monkey, UniProt B0LAJ3 25-170).
T2 construct: Bought recombinant protein; not shown: The vendor's tag
T2 sequence (B0LAJ3 entry or part of it C08H C08H limits assumed): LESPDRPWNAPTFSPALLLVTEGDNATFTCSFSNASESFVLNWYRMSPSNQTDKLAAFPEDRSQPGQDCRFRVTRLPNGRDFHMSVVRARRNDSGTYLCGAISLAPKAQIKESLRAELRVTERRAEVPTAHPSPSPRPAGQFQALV
The assay is described as above. The protocol:
as §1

The target in assay [3] is T3, rat PD-1 (Cat: 80448-R08H, Sino Biological Inc.) (rat, UniProt D3ZIN8 25-169).
T3 construct: Bought recombinant protein; also called recombinant rat PD-1; not shown: The vendor's tag
T3 sequence: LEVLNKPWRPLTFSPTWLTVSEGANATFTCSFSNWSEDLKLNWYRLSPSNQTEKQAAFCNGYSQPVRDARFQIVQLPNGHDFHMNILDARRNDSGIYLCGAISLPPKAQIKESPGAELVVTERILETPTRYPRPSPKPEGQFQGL
The assay is described as above. As for the experimental part:
as §1

In assay [4] the target is T4, recombinant human PD-1/His protein (NCBI accession No.: NP_005009.2, 21aa-167aa, Lot: 2016.2.22) (human, UniProt Q15116 21-167).
T4 construct: range 21-167; also called recombinant human PD-1 extracellular domain protein; not shown: His tag
T4 sequence (Q15116 21-167 limits assumed, form in doubt): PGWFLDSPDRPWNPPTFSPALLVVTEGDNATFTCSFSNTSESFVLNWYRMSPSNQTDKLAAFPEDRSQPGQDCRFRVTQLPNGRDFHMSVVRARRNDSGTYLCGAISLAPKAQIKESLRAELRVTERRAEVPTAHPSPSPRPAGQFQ
The assay is described as follows: BLI (Fortebio BLITZ), antibody captured on AHC sensor, PD-1-His in solution. As for the experimental part: The light chain variable region gene and heavy chain variable region gene of the monoclonal antibody obtained through cloning, with cleavage sites of restriction enzymes introduced by PCR using the following primers (Table 3), were respectively cloned into the upstream of gene encoding human-kappa light chain constant region and the upstream of gene encoding the human IgG4 heavy chain constant region carried in eukaryotic expression vectors. […] The affinity of the antibody was determined by the anti-human antibody capture assay with Fortebio (BLITZ pro1.1.0.28). For the determination, anti-Human IgG Fc Capture (AHC) biosensors were soaked in PBS for 10 min. […] Subsequently, the AHC biosensors were reacted with the diluted recombinant human PD-1-His protein (NCBI accession No.: NP_005009.2, 21aa-167aa, Lot: 2016.2.22) of different concentrations (1 μM, 0.6 μM and 0 nM) for binding for 45 s, and was then transferred into PBS for dissociating for 120 s.
For orientation: Biolayer interferometry detects binding as a change in optical thickness at a sensor tip.

The target in assay [5] is T5, recombinant human PD-1 protein (NCBI accession No.: NP_005009.2, 21aa-167aa) (human, UniProt Q15116 21-167).
T5 construct: range 21-167; also called recombinant human PD-1 extracellular domain protein; PD-1-ECD
T5 sequence (Q15116 21-167 limits assumed, form in doubt): as above
The assay is described as follows: BLI Octet QKe, antibody on the sensor, single 100 nM PD-1. As for the experimental part: Determination of the binding kinetics: the affinity of the antibody was determined with Octet QKe system from Fortebio using an assay of capturing biotin-labeled antibody with streptavidin. […] Both the binding and dissociating were conducted for 300 s.
The comparison of affinity between the variant antibodies and the parent antibody was performed using Octet QKe system supplied by Fortebio.

B1: Clone 317 (murine antibody 317, hybridoma supernatant) (antibody, mouse IgG1, V domains shown)
VH: EVKLVESGGGLMKPGGSLKLSCAASGFTFSSYDMSWVRQTPEKRLEWVATISGGGSYTYYPDSVKGRFTISRDNAKNNLYLQMSSLRSEDTALYYCASPDSSGVAYWGQGTLVTVSA
VL: DIVMTQSHKFMSTSVGDRVSITCKASQDVETVVAWYQQKPGQSPKLLIYWASTRHTGVPDRFTGSGSGTDFTLTISNVQSEDLADYFCQQYSRYPWTFGGGTKL
notes: tested as hybridoma supernatant
Consider B1, for which the binding result in assay [1] is “no binding (tested: single dilution, no concentration shown)”; in assay [2] it was “binds”; in assay [3], “no binding (tested: single dilution, no concentration shown)”.

B2: chimeric antibody 317 (antibody, V domains shown)
VH: EVKLVESGGGLMKPGGSLKLSCAASGFTFSSYDMSWVRQTPEKRLEWVATISGGGSYTYYPDSVKGRFTISRDNAKNNLYLQMSSLRSEDTALYYCASPDSSGVAYWGQGTLVTVSA
VL: DIVMTQSHKFMSTSVGDRVSITCKASQDVETVVAWYQQKPGQSPKLLIYWASTRHTGVPDRFTGSGSGTDFTLTISNVQSEDLADYFCQQYSRYPWTFGGGTKL
For orientation: Kd means the equilibrium constant for the complex coming apart. In general, koff refers to the rate constant with which the complex falls apart. The term kon denotes the second-order rate constant of association. With B2, in assay [4], the Kd stood at 2.64 nM, the koff was determined as 0.000566 s⁻¹ and the on-rate constant (kon) worked out at 215000 M⁻¹ s⁻¹.

B3: h317 variant antibody, light chain W96Y (antibody, V domains shown)
VH: EVQLVESGGGLVKPGGSLRLSCAASGFTFSSYDMSWVRQAPGKGLEWVATISGGGSYTYYPDSVKGRFTISRDNAKNSLYLQMNSLRAEDTAVYYCASPDSSGVAYWGQGTLVTVSS
VL: DIVMTQSPLSLPVTPGEPASITCKASQDVETVVAWYLQKPGQSPRLLIYWASTRHTGVPDRFSGSGSGTDFTLKISRVEAEDVGVYYCQQYSRYPYTFGQGTKL
notes: Variant of h317
Turning to B3, the Kd in assay [5] worked out at 412 nM.

B4: h317 variant antibody, light chain Y91F (antibody, V domains shown)
VH: EVQLVESGGGLVKPGGSLRLSCAASGFTFSSYDMSWVRQAPGKGLEWVATISGGGSYTYYPDSVKGRFTISRDNAKNSLYLQMNSLRAEDTAVYYCASPDSSGVAYWGQGTLVTVSS
VL: DIVMTQSPLSLPVTPGEPASITCKASQDVETVVAWYLQKPGQSPRLLIYWASTRHTGVPDRFSGSGSGTDFTLKISRVEAEDVGVYYCQQFSRYPWTFGQGTKL
notes: Variant of h317
Turning to B4, in assay [5], the Kd stood at 47.6 nM.

B5: h317 variant antibody, light chain Y94F (antibody, V domains shown)
VH: EVQLVESGGGLVKPGGSLRLSCAASGFTFSSYDMSWVRQAPGKGLEWVATISGGGSYTYYPDSVKGRFTISRDNAKNSLYLQMNSLRAEDTAVYYCASPDSSGVAYWGQGTLVTVSS
VL: DIVMTQSPLSLPVTPGEPASITCKASQDVETVVAWYLQKPGQSPRLLIYWASTRHTGVPDRFSGSGSGTDFTLKISRVEAEDVGVYYCQQYSRFPWTFGQGTKL
notes: Variant of h317
In the case of B5, in assay [5], the Kd stood at 6.81 nM.

B6: h317 variant antibody, light chain Y91A (antibody, V domains shown)
VH: EVQLVESGGGLVKPGGSLRLSCAASGFTFSSYDMSWVRQAPGKGLEWVATISGGGSYTYYPDSVKGRFTISRDNAKNSLYLQMNSLRAEDTAVYYCASPDSSGVAYWGQGTLVTVSS
VL: DIVMTQSPLSLPVTPGEPASITCKASQDVETVVAWYLQKPGQSPRLLIYWASTRHTGVPDRFSGSGSGTDFTLKISRVEAEDVGVYYCQQASRYPWTFGQGTKL
notes: Variant of h317
Turning to B6, in assay [5], the Kd is 51.2 nM.
